Measured values from paper PMC8960791 (2022).

Target: soluble HLA-E-VL9, HLA-E*01:03 heavy chain refolded with β2-microglobulin and synthetic VL9 peptide (human | )
Assay: SPR

koff: 0.51 s⁻¹
B1: 3H4 IgG, recombinant 3H4 in a human IgG1 backbone (antibody, V domains shown)
VH: EVQLQESGPELVKPGASVKIPCKASGYTFTDYNMDWVKQSHGKSLEWIGDINPNNGGTIYNQKFKGKATLTVDKSSSTAYMELRSLTSEDTAVYYCARPDYYGSSYGWYFDVWGTGTTVTVSS
VL: DIVITQSPSSMYASLGERVTITCKASQDINSYLSWFQQKPGKSPKTLIYRANRLVDGVPSRFSGSGSGQDYSLTISSLEYEDMGIYYCLQYDEFPLTFGAGTKLELK
